What was measured:
C1q (human) [1] = target: C1q (human) (UniProt P02745); assay: C1q binding ELISA, antibody coated on plate up to 100 ug/ml, 2 ug/ml C1q
CD20 antigen = CD20 antigen (UniProt P11836); assay: flow cytometry on WIL2-S cells expressing CD20; EC50 as percentage of C2B8 reference; set-up: unit not given beside the values
C1q (human) [2] = target: C1q (human) (UniProt P02745); assay: cell-based or functional assay
C1q (human) [3] = target: C1q (human) (UniProt P02745); assay: C1q binding ELISA, antibody coated on plate, 2 ug/ml C1q, anti-C1q-HRP detection

CD20 antigen, sequence (P11836 whole entry): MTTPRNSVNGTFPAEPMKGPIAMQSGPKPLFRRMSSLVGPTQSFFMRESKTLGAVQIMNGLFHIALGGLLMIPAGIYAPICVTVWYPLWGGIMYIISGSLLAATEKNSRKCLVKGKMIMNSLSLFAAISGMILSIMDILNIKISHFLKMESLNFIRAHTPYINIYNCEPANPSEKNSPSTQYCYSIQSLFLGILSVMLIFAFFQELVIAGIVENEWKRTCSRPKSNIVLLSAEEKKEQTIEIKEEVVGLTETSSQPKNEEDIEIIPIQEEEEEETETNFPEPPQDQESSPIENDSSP
C1q (human), sequence (P02745 23-245 limits assumed, chain 1 of 3): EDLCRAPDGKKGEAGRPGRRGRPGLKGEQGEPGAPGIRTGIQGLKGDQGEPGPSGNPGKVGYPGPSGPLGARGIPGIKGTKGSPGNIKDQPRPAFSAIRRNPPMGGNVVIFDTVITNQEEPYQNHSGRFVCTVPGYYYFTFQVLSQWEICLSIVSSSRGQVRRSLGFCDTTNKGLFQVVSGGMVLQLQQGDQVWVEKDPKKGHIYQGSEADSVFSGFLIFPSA
C1q (human), sequence (P02746 28-253 limits assumed, chain 2 of 3, further chain): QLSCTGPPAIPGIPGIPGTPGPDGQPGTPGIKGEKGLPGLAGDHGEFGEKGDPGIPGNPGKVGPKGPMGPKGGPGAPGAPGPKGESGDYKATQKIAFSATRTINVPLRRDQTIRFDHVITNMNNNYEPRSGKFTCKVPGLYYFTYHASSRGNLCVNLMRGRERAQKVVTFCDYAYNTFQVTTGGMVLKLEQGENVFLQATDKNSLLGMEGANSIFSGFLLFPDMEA
C1q (human), sequence (P02747 29-245 limits assumed, chain 3 of 3, further chain): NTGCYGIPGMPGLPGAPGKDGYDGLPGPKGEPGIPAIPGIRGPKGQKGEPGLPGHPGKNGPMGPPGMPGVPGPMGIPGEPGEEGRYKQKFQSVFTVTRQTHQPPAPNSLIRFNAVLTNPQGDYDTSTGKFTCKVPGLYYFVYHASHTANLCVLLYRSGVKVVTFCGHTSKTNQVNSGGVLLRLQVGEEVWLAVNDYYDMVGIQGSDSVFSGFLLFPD

fold lower binding than wild type C2B8 (fold lower than wild type) (C1q (human) [1]) | EC50 as a percentage of the wild type (% of wild type) (CD20 antigen) | CDC (percent activity as compared to wild type C2B8) (% of wild type) (C1q (human) [2]) | percent decrease in binding against wild type C2B8 (C1q (human) [3]) | Substance
60 | 103 | – | – | C2B8 mutant P331A (antibody)
– | 89 | 108 | 30 % decrease | C2B8 mutant E318A (antibody)
– | 102 | 108 | – | C2B8 mutant K320A (antibody)
– | 112 | – | – | C2B8 mutant P329A (antibody)

— patent publication US20030166868A1
